The source of these data is patent US8304565B2, “PEG-lipid conjugates for liposomes and drug delivery” (priority 2008, dated 2012).

Data set [1] in a line: Spontaneous liposome formation of DAG-PEG lipids. In kind it is physicochemical. From the text:
Herein, we describe biologically degradable linear PEG analogs carrying diacylglycerol lipid groups. These new molecules belong to a class referred to as diacylglycerol-polyethyleneglycols (DAG-PEGs). DAG-PEGs having certain properties form liposomes spontaneously upon mixing with an aqueous solution. Briefly, DAG-PEGs or lipid mixtures including DAG-PEGs must have packing parameters that allow liposome formation. Generally, Pa is preferably between about 0.84 and 0.88, and Pv is preferably between about 0.88 and 0.93. Also, the DAG-PEGs or lipid mixtures including DAG-PEGs must have a melting point below the temperature of liposome formation. If a DAG-PEG meets these conditions, it will form liposomes spontaneously (without external energy inputs). Spontaneous liposomes and DAG-PEGs are described in U.S. Pat. No. […], which is hereby incorporated by reference. The particular DAG-PEGs described in U.S. Pat. No. […] utilized a single oxy (alternatively called oxyl) linkage between the PEG and the glycerol backbone.
A number of new DAG-PEGs were synthesized and tested. Most of the combinations of PEG chains and fatty acids were chosen because it was known or expected that such DAG-PEGs with oxy linkages would have packing parameters and melting points favorable for the formation of liposomes.

Data set [2] is described as follows: In vitro stability of selective linkers at low pH. Format: physicochemical. The conditions noted are these: 10 mM phosphate buffer (pH 2.1), approximately 0.05 g/mL, 37°, GPC with RI detector. As to the method:
Three DAG-PEGs with equivalent PEG chains and fatty acids, but different linkages (shown in Table 5) were tested for stability at low pH, in the range of 1.4 to 2.1. Table 5 includes alternate names for each of the three DAG-PEGs tested.
The selected DAG-PEGs were mixed with 10 mM phosphate buffer (pH 2.1) at final concentrations approximately 0.05 g/mL and incubated at 37° . The sample solutions were tested on a GPC column with RI detector and the breakdown fragments were further confirmed by LC-MS/MS.
In FIG. 1, (1) is PEG (n=12)-3-acetyl-1,2-rac-dioleoylglucerol, (2) is PEG (n=12)-3-acetamido-dioleoylglycerol and (3) is PEG (n=12)-3-N-(mercaptomethyl)-Propionamido-1,2-rac-dioleoylglucerol.

Data set [3] has as its system human red blood cells. The experiment in a line: Hemolysis of human red blood cells. Format: cell-based. The conditions noted are these: equivalent concentrations (20 mmol), absorbance at 413 nm. How it is done:
In addition, hemolysis of human red blood cells was performed to provide a more quantitative cytotoxicity evaluation of the PEG-grafted lipids. Cell lysis caused by cytotoxic material leads to release of heme into solution, which was detected by absorbance at 413 nm and compared to control experiments performed in the absence of the synthetic material. Results in Table 6 for equivalent concentrations (20 mmol) of sodium lauryl sulfate (SLS) and mPEG-600 were shown for the comparison.

The conditions of data set [4]: mouse, in vivo, iv, 10 mg/kg.
Method: Groups of three male mice (B6D2F1) were used for the studies. Pharmacokinetics (PK) were performed on heparinized mouse plasma samples obtained typically at 0 hr, 0.08 hr, 0.25 hr, 0.5 hr, 1 hr, 2 hr, 4 hr, 8 hr, 16 hr and 24 hr after the bolus IV injection or oral feeding for posaconazole and at 0 hr, 0.08 hr, 0.25 hr, 0.5 hr, 1 hr, 2 hr, 4 hr, 8 hr, 16 hr and 24 hr for itraconazole. Samples were analyzed using a HPLC-MS method. To determine the level of each drug, the drug was first isolated from plasma with a sample pre-treatment. Acetonitrile were used to remove proteins in samples. An isocratic HPLC-MS method was then used to separate the drugs from any potential interference. Drug levels were measured by MS detection with a multiple reaction monitoring (MRM) mode. PK data was analyzed using the WinNonlin program (ver. 5.2, Pharsight) compartmental models of analysis.
The drug was administered intravenously and the dosing strength was 10 mg/kg.

As to “PEG (n=12)-3-acetyl-1,2-rac-dioleoylglycerol [PEG-12-Ac2-GDO]”, in data set [1] (20° C.), the “Spontaneous Liposome at 20° C.” value was “Yes”. Moreover, the “Spontaneous Liposome at 37° C.” value in data set [1] (37° C.) was “Yes”. Also, in data set [2], the “stability at low pH” value is “stable”. Turning to `CCCCCCCCCCCCOS(=O)(=O)[O-].[Na+]` [SLS, sodium lauryl sulfate], the “% Hemolysis” value in data set [3] stood at 80%.

For the compound “PEG (n=12)-3-N-(mercaptomethyl)-Propionamido-1,2-rac dioleoylglycerol [PEG-12-S2-GDO]”, in data set [2], the “stability at low pH” value was “degraded quickly”.

Turning to “PEG (n=12)-3-acetamido-dioleoylglycerol [PEG-12-N3-GDO]”, the “stability at low pH” value in data set [2] is on record as “relatively stable”. POPC: in data set [4], the AUC turned out to be 164.1 µg·h/mL.
